Tested on: T1, hADAR2-R2D E488Q E488Q (Homo sapiens), P78563-2
T1 sequence: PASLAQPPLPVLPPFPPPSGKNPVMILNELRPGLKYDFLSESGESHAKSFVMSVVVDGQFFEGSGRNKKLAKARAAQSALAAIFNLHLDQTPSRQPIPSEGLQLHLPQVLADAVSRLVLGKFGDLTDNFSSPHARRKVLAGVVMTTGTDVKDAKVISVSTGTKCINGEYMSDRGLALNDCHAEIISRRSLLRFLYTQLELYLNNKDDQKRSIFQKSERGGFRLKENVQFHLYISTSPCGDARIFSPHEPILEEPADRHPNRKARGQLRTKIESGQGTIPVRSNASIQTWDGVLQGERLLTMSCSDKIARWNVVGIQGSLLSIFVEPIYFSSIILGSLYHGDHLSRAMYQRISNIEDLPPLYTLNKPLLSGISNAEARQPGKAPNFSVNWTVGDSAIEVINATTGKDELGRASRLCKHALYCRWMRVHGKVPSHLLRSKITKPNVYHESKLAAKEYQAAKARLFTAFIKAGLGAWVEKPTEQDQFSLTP
Assay: EMSA
Settings: N at position 13 of strand 1 = 8-azanebularine; EMSA: labeled strand hybridized to complement 1:3 in 1X TE pH 7.5; protein 0.25-256 nM (GG) or 0-260 nM (UA); binding buffer, salt and temperature not given in …

| Sequence | Kd |
| --- | --- |
| GCUCGCGAUGCGNGAGGGCUCUGAUAGCUACG / CGUAGCUAUCAGAGCCCCCCGGCAUCGCGAGC [GLI1 (GG) 32mer, azaN] | 6 nM |
| GCUCGCGAUGCUNGAGGGCUCUGAUAGCUACG / CGUAGCUAUCAGAGCCCCCCAGCAUCGCGAGC [GLI1 (UA) 32mer, azaN] | 0.9 nM |

Source: PMC9638939
